Test results published in US20150315260A1 (Sanofi, published 2015).
Read-outs that look alike come from different tables or passages of the source. Starred links: 1 amine or outer side, 2 acyl side, 3 side chain; linkers in the order of their positions; H or OH if unused. Non-standard residues stand in square brackets, D forms with d. Groups on a side chain read outwards from the residue. No end group written: not given here. *: point of attachment. γGlu = O=C(O)[C@H](CCC(=O)[*:2])N[*:1]; Palmitoyl = CCCCCCCCCCCCCCCC(=O)*; Aib = CC(C)(N)C(=O)O

T1: human GIP receptor (human, UniProt P48546 22-466)
T1 sequence (looked up): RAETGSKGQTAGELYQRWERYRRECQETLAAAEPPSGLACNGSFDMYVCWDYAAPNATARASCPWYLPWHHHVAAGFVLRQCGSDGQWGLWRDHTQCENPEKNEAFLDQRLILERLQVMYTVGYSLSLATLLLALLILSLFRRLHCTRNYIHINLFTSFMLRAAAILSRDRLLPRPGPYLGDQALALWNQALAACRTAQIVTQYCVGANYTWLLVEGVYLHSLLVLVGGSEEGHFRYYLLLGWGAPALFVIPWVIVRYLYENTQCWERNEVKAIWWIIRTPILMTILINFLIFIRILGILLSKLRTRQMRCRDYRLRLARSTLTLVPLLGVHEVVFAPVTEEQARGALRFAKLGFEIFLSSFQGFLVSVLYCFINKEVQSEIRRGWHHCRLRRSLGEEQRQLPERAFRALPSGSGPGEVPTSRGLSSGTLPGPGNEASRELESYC

B1: exendin-4 derivative SEQ ID NO: 24 (comparison compound, Leu in position 14) (peptide)
peptide: H[Aib]QGTFTSDLSKQLDEQRAKLFIEWL[Aib]AGGPSSGAPPPS-NH2
modifications: N-terminus assumed
SMILES: CC[C@H](C)[C@H](NC(=O)[C@H](Cc1ccccc1)NC(=O)[C@H](CC(C)C)NC(=O)[C@H](CCCCN)NC(=O)[C@H](C)NC(=O)[C@H](CCCNC(=N)N)NC(=O)[C@H](CCC(N)=O)NC(=O)[C@H](CCC(=O)O)NC(=O)[C@H](CC(=O)O)NC(=O)[C@H](CC(C)C)NC(=O)[C@H](CCC(N)=O)NC(=O)[C@H](CCCCN)NC(=O)[C@H](CO)NC(=O)[C@H](CC(C)C)NC(=O)[C@H](CC(=O)O)NC(=O)[C@H](CO)NC(=O)[C@@H](NC(=O)[C@H](Cc1ccccc1)NC(=O)[C@@H](NC(=O)CNC(=O)[C@H](CCC(N)=O)NC(=O)C(C)(C)NC(=O)[C@@H](N)Cc1c[nH]cn1)[C@@H](C)O)[C@@H](C)O)C(=O)N[C@@H](CCC(=O)O)C(=O)N[C@@H](Cc1c[nH]c2ccccc12)C(=O)N[C@@H](CC(C)C)C(=O)NC(C)(C)C(=O)N[C@@H](C)C(=O)NCC(=O)NCC(=O)N1CCC[C@H]1C(=O)N[C@@H](CO)C(=O)N[C@@H](CO)C(=O)NCC(=O)N[C@@H](C)C(=O)N1CCC[C@H]1C(=O)N1CCC[C@H]1C(=O)N1CCC[C@H]1C(=O)N[C@@H](CO)C(N)=O
B2: exendin-4 derivative SEQ ID NO: 7 (peptide)
peptide: H[Aib]QGTFTSDLSKQK([γGlu-γGlu-Palmitoyl])DEQRAKLFIEWL[Aib]A[dA]GPSSGAPPPS-NH2
modifications: N-terminus assumed
SMILES: CCCCCCCCCCCCCCCC(=O)N[C@@H](CCC(=O)N[C@@H](CCC(=O)NCCCC[C@H](NC(=O)[C@H](CCC(N)=O)NC(=O)[C@H](CCCCN)NC(=O)[C@H](CO)NC(=O)[C@H](CC(C)C)NC(=O)[C@H](CC(=O)O)NC(=O)[C@H](CO)NC(=O)[C@@H](NC(=O)[C@H](Cc1ccccc1)NC(=O)[C@@H](NC(=O)CNC(=O)[C@H](CCC(N)=O)NC(=O)C(C)(C)NC(=O)[C@@H](N)Cc1c[nH]cn1)[C@@H](C)O)[C@@H](C)O)C(=O)N[C@@H](CC(=O)O)C(=O)N[C@@H](CCC(=O)O)C(=O)N[C@@H](CCC(N)=O)C(=O)N[C@@H](CCCNC(=N)N)C(=O)N[C@@H](C)C(=O)N[C@@H](CCCCN)C(=O)N[C@@H](CC(C)C)C(=O)N[C@@H](Cc1ccccc1)C(=O)N[C@H](C(=O)N[C@@H](CCC(=O)O)C(=O)N[C@@H](Cc1c[nH]c2ccccc12)C(=O)N[C@@H](CC(C)C)C(=O)NC(C)(C)C(=O)N[C@@H](C)C(=O)N[C@H](C)C(=O)NCC(=O)N1CCC[C@H]1C(=O)N[C@@H](CO)C(=O)N[C@@H](CO)C(=O)NCC(=O)N[C@@H](C)C(=O)N1CCC[C@H]1C(=O)N1CCC[C@H]1C(=O)N1CCC[C@H]1C(=O)N[C@@H](CO)C(N)=O)[C@@H](C)CC)C(=O)O)C(=O)O
B3: exendin-4 derivative SEQ ID NO: 23 (comparison compound, non-functionalized Lys in position 14) (peptide)
peptide: H[Aib]QGTFTSDLSKQKDEQRAKLFIEWL[Aib]AGGPSSGAPPPS-NH2
modifications: N-terminus assumed
SMILES: CC[C@H](C)[C@H](NC(=O)[C@H](Cc1ccccc1)NC(=O)[C@H](CC(C)C)NC(=O)[C@H](CCCCN)NC(=O)[C@H](C)NC(=O)[C@H](CCCNC(=N)N)NC(=O)[C@H](CCC(N)=O)NC(=O)[C@H](CCC(=O)O)NC(=O)[C@H](CC(=O)O)NC(=O)[C@H](CCCCN)NC(=O)[C@H](CCC(N)=O)NC(=O)[C@H](CCCCN)NC(=O)[C@H](CO)NC(=O)[C@H](CC(C)C)NC(=O)[C@H](CC(=O)O)NC(=O)[C@H](CO)NC(=O)[C@@H](NC(=O)[C@H](Cc1ccccc1)NC(=O)[C@@H](NC(=O)CNC(=O)[C@H](CCC(N)=O)NC(=O)C(C)(C)NC(=O)[C@@H](N)Cc1c[nH]cn1)[C@@H](C)O)[C@@H](C)O)C(=O)N[C@@H](CCC(=O)O)C(=O)N[C@@H](Cc1c[nH]c2ccccc12)C(=O)N[C@@H](CC(C)C)C(=O)NC(C)(C)C(=O)N[C@@H](C)C(=O)NCC(=O)NCC(=O)N1CCC[C@H]1C(=O)N[C@@H](CO)C(=O)N[C@@H](CO)C(=O)NCC(=O)N[C@@H](C)C(=O)N1CCC[C@H]1C(=O)N1CCC[C@H]1C(=O)N1CCC[C@H]1C(=O)N[C@@H](CO)C(N)=O

Experiments:
Assay in all cases: cell-based or functional assay
human GIP receptor [1] = molecular target: T1, human GIP receptor
human GLP-1 receptor [2] = molecular target: T2, human GLP-1 receptor (human, UniProt P43220 24-463)
human glucagon receptor [3] = molecular target: T3, human glucagon receptor (human, UniProt P47871 26-477)
human GIP receptor [4] = molecular target: T1, human GIP receptor; remark: listed apart in the source
human GLP-1 receptor [5] = molecular target: T2, human GLP-1 receptor; remark: listed apart in the source
human glucagon receptor [6] = molecular target: T3, human glucagon receptor; remark: listed apart in the source

T3 sequence (P47871 26-477): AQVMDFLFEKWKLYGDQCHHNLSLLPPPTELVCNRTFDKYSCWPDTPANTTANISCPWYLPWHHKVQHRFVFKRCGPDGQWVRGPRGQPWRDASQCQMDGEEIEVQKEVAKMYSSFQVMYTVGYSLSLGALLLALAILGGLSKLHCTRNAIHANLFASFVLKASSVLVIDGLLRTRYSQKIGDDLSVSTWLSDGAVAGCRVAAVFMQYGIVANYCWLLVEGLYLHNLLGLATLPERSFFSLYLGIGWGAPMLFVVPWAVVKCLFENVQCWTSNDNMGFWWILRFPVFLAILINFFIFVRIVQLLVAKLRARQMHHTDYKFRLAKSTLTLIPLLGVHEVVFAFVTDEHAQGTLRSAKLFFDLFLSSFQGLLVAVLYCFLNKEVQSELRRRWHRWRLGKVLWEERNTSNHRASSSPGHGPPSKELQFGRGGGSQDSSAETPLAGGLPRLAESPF

Binder | EC50 hGIP-1 (cAMP formation, GIP receptor) (human GIP receptor [1]) | EC50 hGLP-1R (cAMP formation) (human GLP-1 receptor [2]) | EC50 hGlucagon-R (cAMP formation) (human glucagon receptor [3]) | EC50 hGIP-R (cAMP formation) (human GIP receptor [4]) | EC50 hGLP-1R (cAMP formation) (human GLP-1 receptor [5]) | EC50 hGlucagon-R (cAMP formation) (human glucagon receptor [6])
B1 | 114 nM | 0.008 nM | 3.09 nM |  |  | 
B2 |  |  |  | 7.62 nM | 0.0034 nM | 0.101 nM
B3 | 177 nM | 0.0525 nM | 42.9 nM |  |  | 
